The target in the assay is T1, nucleoprotein of influenza A virus (NP383-391) peptide on HLA-B*27:05 (human).
T1 peptide: SRYWAIRTR
Nature of the assay: activation reporter or marker.

B1: GRb (TCR, V domains shown)
Valpha: AQTVTQSQPEMSVQEAETVTLSCTYDTSENNYYLFWYKQPPSRQMILVIRQEAYKQQNATENRFSVNFQKAAKSFSLKISDSQLGDAAMYFCAYFSGGSNYKLTFGKGTLLTVNP
Vbeta: DTEVTQTPKHLVMGMTNKKSLKCEQHMGHRAMYWYKQKAKKPPELMFVYSYEKLSINESVPSRFSPECPNSSLLNLHLHALQPEDSALYLCASSQEVLDTQYFGPGTRLTVL
Take B1: the binding result is recorded as “recognises”.

These data come from patent US20130259876A1 (published 2013).
